In patent US20200181633A1 one finds hemagglutination unit (HAU), co-expression with H5-S-Tag in plants in vivo and hemagglutination unit (HAU), combination with H5-S-Tag in vitro data, which are given here for three substances.

This test has as its target trimerized [change]-Tag (A/duck/Viet Nam/TG24-01/2005 (H5N1)). In words: cell-based or functional assay.
Turning to S-Protein-GCN4 (reference 2), the hemagglutination unit (HAU), co-expression with H5-S-Tag in plants in vivo was found to be 2 HAU and the hemagglutination unit (HAU), combination with H5-S-Tag in vitro came to 0 HAU.
On to S-Protein-pII (reference 1), for which the hemagglutination unit (HAU), co-expression with H5-S-Tag in plants in vivo is 0 HAU and the hemagglutination unit (HAU), combination with H5-S-Tag in vitro came out at 0 HAU.
“wild type S-Protein (from UniProt P61823 47-150)”: the hemagglutination unit (HAU), co-expression with H5-S-Tag in plants in vivo was 4 HAU and the hemagglutination unit (HAU), combination with H5-S-Tag in vitro was found to be 0 HAU.
